Earlier results on one substance are cited in publication PMC2892782.

This data set concerns the target Lys41 (UniProt position 67, TKDRCKPVNTF). Nature of the data set: NMR.

For the substance “Ribonuclease A (bovine pancreatic ribonuclease) (Bos taurus)”, the pKa is listed as 8.6-9.1.
